The record followed here is US20210309984.

The subject of the data set is MUC5AC within type II porcine stomach mucin extract.

“ChiA C-domain (ChiA-CTD: residues 419-762), wild-type”: the “immunoblot of MUC5AC degradation, in the presence of EDTA” value is “no activity was detected”.
In the case of “SsIE (residues 90-1520), E. coli strain W”, the “immunoblot of MUC5AC degradation in type II mucin extract” value is reported as “MUC5AC was processed into a different ˜60 kDa species” and the “immunoblot of MUC5AC degradation, in the presence of EDTA” value was “no activity was detected”.
